Reference: the nanobody polyreactivity screen of Harvey et al. (2022)

Assay: yeast display, Sf9 membrane polyspecificity reagent, FACS + sequencing; frameworks hold sequencing errors
Procedure, shortened: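 Using colony PCR, genes from sorted yeast display clones were amplified, then sequenced on MiSeq at 2 × 250 and filtered by CDR length. The clones had been stained with 10% biotinylated, detergent-solubilized Sf9 membrane reagent for 1 hour at 4 °C and sorted by FACS into low and high (top ~1%) gates on anti-HA and streptavidin fluorescence. Polyreactivity labels come from the gate of origin.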

Row | Sequence | polyreactivity (PSR sort gate)
1 | QVQLVESGGGLVQAGGSLRLSCDASGSIFPYNAMGWYRQAPGKEREFVAAINLSGRSTNYADSVKGRFTISRDNAKNTVYLQMNSLKPEDTAVYYCNAPFVYFWPLNFDYWGQGTQVTVSS | low polyreactivity
2 | QVQLVESGGGLVQAGGSLRLSCAASGSIFVGNAMGWYRPAPGKERELVAAITGRGSRTYYADSVKGRFTLSRDNAKNTVYLQMNSLKPEDTAVYYCAARYTNYGGFYWGQGTQVTVSS | high polyreactivity
3 | QVQLVESGGGLVQAGGSLRLSCAASGGTFSTYAMGWYRQAPGKERELVAAISSTGGSTYYADSVKGRFTISRDNAKNTVYLQMNSLKPEDTAVYYCAAYYSRGWLLYWDEMYYWGQGTQVTVSS | high polyreactivity
4 | QLQLVESLGGLFQAGGILRLSCAASGRTLRGYGNGWYRQAPAKEREFVAAISTRGGRTYYADSVKGRFTISRDNAKNTVYLQMKILKPEDTAVYYCAAAYEPGDYDSWGQGTQVTVSS | low polyreactivity
5 | QVQLVESGGGLVQAGGSLRLSCAASGSTFYYNAMGWYRQAPGQERELVAAITSGGGTNYADSVKGRFTISRDNAKNTVYLQLNSLKPEDTAVYYCAADIYPLAIGAFRDDYWGQRTQVTVSS | low polyreactivity
6 | QVQLVESGGGLVQAGGSLLLSCAASGGTFYYYAMGWYRQAPGKERELVASISSRGGSTYYADSVKGRFTISRDNAKNTVYLQMNSLKPEDTAVYYCAARSLYRGFGYWGQGTQVTVSS | high polyreactivity
7 | QVQLVESGGGLVQAGGSLRLSCAASGRIFGTYTKGWYRQAPGKERELVAAITTGGITNYADSVKGRFTISRDNAKNTVYLQMKSLKPEDTAVYYCNARWDYGAYEYWGQGTQVTVSS | low polyreactivity
8 | QVQLVESGGGLVQAGVSLRLSCAASGSIFRIYGMGWYRQAPGKEREFVAAITHSGGSTYYADSVKGRFTISRDNAKNTVYLQMNSLKPEDTAVYYCAAEDYNYWSYDYWGQGTQVTVSS | low polyreactivity
9 | QVQHVASGGGLVQAGGSLRLSCAASGSTFVYYAMGWYRQAPGKERELFADITKSGGSTFYAESVKGRFTISRDNAKNTVYLQMNSLKPEDTAVFYCGARYKGQYYRQGRHDYWGQGSQVTVSS | high polyreactivity
10 | QVQLVESGGGLVQAGGSLRLSCAASGRIFSYNAMGWYRQAPGKERELVAAISYRGGSTYYADSVKGRFTISRDNAKNTVYLQMNSLKPEDTAVYYCNAEAYYPYGYDYWGQGTQVSVSS | low polyreactivity
11 | QVQLVESGGGLVQAGGSLRLSCAASGITSDQNAMGWYRQAPGKERELVAAISWSGGSTYYADSVKGRFTISRDNAKNTVYLQMNSLKPEDTAVYYCAADIYTAYYEFDYWGQGTQVTVSS | low polyreactivity
12 | QVQHVESGGGLVQAGGSLRLSCAASGIIFRDYGMGWYRQAPGKEREFVATITYSGGGTYYADSVKGRFTISRDNAKNTVYLQMNSLKPEDTAVYYCAAYPFYYDLAYDYWGQGTQVTVSS | low polyreactivity
13 | QVQLVESGGGLVQAVGSHRLSCAASGSIFFWYTMGWYRQPPGKERELVATITGSGSSTTYADSVKGRFTISRDNAKNTVYLQMNSLKPVDTAVYYCAAADIIDHSFPYDYWGQGTQVTVSS | low polyreactivity
14 | QVQLVESGGGLVQAGGSLRLSCAASGSTFARYAMGWYRQAPGKERELVASITQSSGSTYYADSVKGRFTISRDNAKSTVYLQMNSLKPEDTAVYYCAKVISYGPVPDRYDYWGQGTQVTVSS | high polyreactivity
15 | QVQLVESGGGLVQAGGSLRLSCAASGIIFWRHVMGWYRQAPGKERELVATISTRGGNTYYADSVKGRFTISRDNAKNTVYLQMNSVKPEDTAVYYCAAGKNGYTYSRSYSYGYWGQGTQVTVSS | high polyreactivity
16 | QVQLVESGVGIVQAGGSLRLSCAASGRIFARNAMVWYRHAPGKERELVATIRVGGGSTYYADSVKGRFTISRDNAKNTVYLQMNSLKPEDTAVYYCAVRQLYSYPGDRRGYYWGQGTQVTVSS | low polyreactivity
17 | QVQLVESGGGLVQAGGSLRLSCAASGRTFIRNAMGWYRQAPGKERELVAAISGTGGSTYYADSVKGRLTISRDNAKNTVYLQMNSLKPEDTAVYYCAADRPAPGYDYWGQGTQVTVSS | low polyreactivity
18 | QVQLEESGGGLVQAGGSLRLSCAASGITFSDYAMGWYRQAPGKERELVAGISFTVGSTYYADSVKRPFTISRDNAKNTVYLQMNSLKPEDTAVYLCNADSFVDLDYWGQGTQVTVSS | low polyreactivity
19 | QVQLVESGGGLVQAGGSLRLSCAASGRTLASNAMGWYRQAPGKERELVAAINRGGSTYYADSVKGRFTISRDNAKNTVYLQMNSLKPEDTAVYSCAVDRYRYPFDYWGQGTQVTVSS | low polyreactivity
20 | QVQLVESGGGLVQAGGSLRLSCAASGGTFSFYTMGWYRQAPGKERELVAAISRSGGRTYYADSVKGRFTISRDHAQNTVYLQMNSLKPEDTAVYYCAAERFSNIYTTMGYWGQGTQVTVSS | high polyreactivity
21 | QVQLVESGGGLVQAGGSLRLSCAASGGTQRYYAMGWYRQAPGKEREFVASISRSGGSTYYADSVKGRFTISRDNAKNTVYLQMNSLKPEDTAVYYCAAYWSPGYTTRRGYWGQGTQVTVSS | high polyreactivity

Row | Sequence | polyreactivity (PSR sort gate)
22 | QVQLVESGGGLVQAGGSLRLSCAASVRIFVYYAMGWYRQAPGKERELVASISYSGASTYYADSVKGRFTISRDNAKKTVYLQMNSLKPEDTAVYYCNTDGDDFFHVIYDYWGQGTQVTVSS | low polyreactivity
23 | QVQLVESGGGLVQAGGSLRLSCAASGIIFTYYAMGWYRQAPGKERELVAAISYRGGSTNYADSVKGRFTISRDNAKNTVYLQMNSLKPEDTAVYYCAAKSYWKRFRVLYDYWGQGTQVTVSS | high polyreactivity
24 | QVQLVESGGGLVQAGGSLRLSCAASGRTFYGNGMGWYRQAPGKRELVAAISYSGASTYYADSVKGRFTISRDNAKNTVCLLMNSLKPEDTAVYYCAAQPSVYCSLFTRASEDYWGQGTQVTVSS | high polyreactivity
25 | QVQLVESGGGLVQAGGSLRLSCAASGSIFYSYAMGWYRQAPGKERELVARITKRGGRTYYADSVKGRFTISRDNAKNTVYLQMNSLKPEDTAVYYCAATTGHRTYRYYYWGQGTQVTVSS | high polyreactivity
26 | QVQLVESGGGLVQAGGSLRLSCAASGSTFPYNAMGWYRQAPGKERELVASISRRGGSTYYADSVKGRFTISRDNAKNTVYLQMNSLKPEDTAVYYCNASGGPYRYYYWGQGTQVTVSS | low polyreactivity
27 | QVQLVESGGGLVQAGGSLRLSCAASGLTFYSNSMGWYRPAPGKERELVAVISADGASTYYADSVKGRFTISRDNAKNTVYLQMNSLKPEDTAVYYCAARVSARGKGYYWGQGTQVTVSS | high polyreactivity
28 | QVQLGESGGGLVHEGGSLRLSCAASGFINFANTMGLYRQAPGKERELVAAITSDGSTYYADSVKGRFTISRDNAKNTVYLQMNSLKPEDTAVYYCNAQSNYADLAYWNDYWGQGTQVTVSS | low polyreactivity
29 | QVQLVESGGGLVQAGGSLRLSCAASGNTFVGYTMGWYRQAPGKEWELVAAISWNGGTTYYADSVKGRFTISRDNAKNTVYLQMNSLKPEDTAVYYCNTRWYTRRFDYWGQGTQVTVSS | high polyreactivity
30 | QVQLVESGGGLVQAGGSLRLSCAASGSTFSRYTMGWYRQAPGKERELVAAITWSGGRTYYADSVKGRFTISRDNAKNTVYLQMNSLKPEDTAVSYCNVDSSRYSGYDYWGQGTQVTVSS | high polyreactivity
31 | QVQLVESGGGLVQARGSLRLSFAASGYTLRPNGMGWYRQAPGKERELVAAISSGGSTYYADSVKGRFTISRDNAKNTVYLQLNSLKPEDTAVSYCAAEYWYDYWVQGTQVTVSS | low polyreactivity
32 | QVQLVESGGGLDQAGGSLRLSCAASGRIFRPNAMGWYRQAPGKERELVAAITSGGSTNYADSVKGRFTISRDNAKNTVYLQMNSLKPEDNAVYYCAKGYKYGKNIYYYWGQGTQVTVSS | high polyreactivity
33 | QVQLVESGGGLVQSGGSLRLSCAASGGIFGINAMGWYRQAPGKEREFVAAITASGGTTYYADSVKGRFTISRDNAKNTVYLQMNRLKPEDTAVYYCAKRYRSYDYVWYEYWGQGTQVTVSS | high polyreactivity
34 | QVQLVESAGGLVQAGGSLRLICAATGRIYEIYAMGWYRQAPGTERELVATIDSGGSTNYADSVKGRFTISRDNAKNTVYLQMNSLQPEDTAVYYCAGGNPFYDSIGYDYWGQGTQVTVSS | low polyreactivity
35 | QVQLVDSGGGLVQAGGSLRLSCAASGSTFQPYAMGWYRQAPGKERELVAAIRYSGGITYYADSVKGRFTISRDNAKNTVYLQMNSLKPEDTAVYYCAAYGFYGGDYWGQGTQVTVSS | high polyreactivity
36 | QVQLVESGGGIVQAGGSLRLSCAASGSTFAYYAIGWYRQAPGKEREFVATITWTGGSTNYADSETGRFTISRDNAKNSVYLQMNSLKPEATAVYYSAASFVISYDYWGQGTQVTVSS | high polyreactivity
37 | QVQLVESGGGLVQAGGSLRLSCAASGITFYFYAMGWYRQAPGKERELVASITSSGSTDYADSVKGRFTISRDNAKNTVYLQMNSLKPEDTAVSYCAADVQKHFYSFGDERGFPFDYWGQGTQVTVSS | low polyreactivity
38 | QVQLVESGGGLVQAGGSIRLTCAASGSIFVFYAMGWYRQAPGKEREFVATITWSGTSTYYADSVKGRFSISRDNAKNTVYLQMNSLKPEDTAVYYCAARYLGGRRSGDYSRYYWGQGTQVTVSS | high polyreactivity
39 | QVQLVESGGGLVQAGGSLRLSCAASGITSYYYTMGWYRQAPGKERELVAAITSGGSTYYADSVKGRFTISRDNAKNTVYLQMNSLKPEDNAVYYCTADNPRYRGSKYGPYDDYNYWGQGTQVTVSS | low polyreactivity
40 | QVQLVETGGGLVQARGSLRLSCAASGRTFYKYAMGWYIQAPGKERELVAAISSDGTTYYADSVKGRFTISRDNAKNTVYLQMNRLKPVDTAVYYFAADPPPPFLYVSVQEYDYWGQGTQVTVSS | low polyreactivity
41 | QVQLVESGGGLVQAGGSLRLSCAASGSTFSKYAMGWYRQAPVKERELVAGIRGRGGSAYYADSVKGRFTISRDNAKNTVYLQMNSLKPEDTAVYYCAKEARLWGQGTQVTVSS | low polyreactivity
